From paper PMC6420115

Assays:
[1] = target: full length PfCSP (NF54 strain) (Plasmodium falciparum (NF54 strain)) (UniProt P19597)
minimal NANP3 peptide = experiment: SPR; settings: parent: est. 2.1e-6 M; read off a plot

Sequence of full length PfCSP (NF54 strain) (Plasmodium falciparum (NF54 strain)) (P19597 19-374): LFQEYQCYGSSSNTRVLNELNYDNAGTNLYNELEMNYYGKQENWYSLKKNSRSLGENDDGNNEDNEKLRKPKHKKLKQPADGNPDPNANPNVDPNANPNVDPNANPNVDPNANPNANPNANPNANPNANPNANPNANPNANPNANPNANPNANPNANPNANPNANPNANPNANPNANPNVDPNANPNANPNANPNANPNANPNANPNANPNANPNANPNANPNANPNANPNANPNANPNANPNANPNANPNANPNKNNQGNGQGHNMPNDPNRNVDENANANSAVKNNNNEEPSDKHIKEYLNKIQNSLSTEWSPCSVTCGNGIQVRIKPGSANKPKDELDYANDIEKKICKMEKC

| other [1] [µg/mL] | Substance | Kd (minimal NANP3 peptide) [µM] |
| --- | --- | --- |
| 0.2 | 2163 IgG (germline antibody 2163) | – |
| 0.16 | 2163_H.V50_Imut IgG (antibody) | – |
| – | 2163 IgG (germline antibody 2163) H:V50I | 0.13 |
| 0.16 | 1210_H.V50_Imut IgG (antibody) | – |
| 0.21 | 2163_KN IgG (2163_H.N56_Kmut_K.S93_Nmut) (antibody) | – |
| – | 2163 IgG (germline antibody 2163) H:S31N | 1.5 |
| – | 2163 IgG (germline antibody 2163) H:N56K | 2.6 |
| 0.14 | 1210_H.K56_Nrev IgG (antibody) | – |
| – | 2163 IgG (germline antibody 2163) H:N56K; K:S93N | 2.6 |
| 0.12 | 2163_H.S31_Nmut IgG (antibody) | – |
| 0.14 | 1210_H.N31_Srev IgG (antibody) | – |
| 0.17 | 1210_NS IgG (1210_H.K56_Nrev_K.N93_Srev) (antibody) | – |
